B1: AtGALT29A (Arabidopsis thaliana beta-galactosyltransferase 1 from family GT29, At1g08280), C-terminal mCer3-HA or YFP-HA fusion (enzyme, UniProt Q9SGD2 1-398, looked up)
chain: MKRSVRPLFSALLFAFFAATLICRVAIRRSSFSFASAIAELGSSGLMTEDIVFNETLLEFAAIDPGEPNFKQEVDLISDYDHTRRSHRRHFSSMSIRPSEQQRRVSRDIASSSKFPVTLRSSQAYRYWSEFKRNLRLWARRRAYEPNIMLDLIRLVKNPIDVHNGVVSISSERYLSCAVVGNSGTLLNSQYGDLIDKHEIVIRLNNAKTERFEKKVGSKTNISFINSNILHQCGRRESCYCHPYGETVPIVMYICQPIHVLDYTLCKPSHRAPLLITDPRFDVMCARIVKYYSVKKFLEEKKAKGFVDWSKDHEGSLFHYSSGMQAVMLAVGICEKVSVFGFGKLNSTKHHYHTNQKAELKLHDYEAEYRLYRDLENSPRAIPFLPKEFKIPLVQVYH
notes: AtGALT29A, Arabidopsis thaliana, locus At1g08280; full-length cDNA without stop codon; Two copies that differ only in the tag were used in the FRET experiments: mCer3-HA (donor) and YFP-HA (acceptor); They are kept as one molecule so that the homodimer row has the protein with itself; The label in each row tells which copy was meant; also called AtGALT29A-mCer3; AtGALT29A-YFP; source: N. …
B2: AtGALT31A (Arabidopsis thaliana beta-galactosyltransferase 1 from family GT31, At1g32930), C-terminal mCer3-HA or YFP-HA fusion (enzyme, UniProt Q9MAP8 1-399, looked up)
chain: MGMGRYQKSATSGVSARWVFVLCISSFLLGVLVVNRLLASFETVDGIERASPEQNDQSRSLNPLVDCESKEGDILSRVSHTHDVIKTLDKTISSLEVELATARAARSDGRDGSPAVAKTVADQSKIRPRMFFVMGIMTAFSSRKRRDSIRGTWLPKGDELKRLETEKGIIMRFVIGHSSSPGGVLDHTIEAEEEQHKDFFRLNHIEGYHELSSKTQIYFSSAVAKWDADFYIKVDDDVHVNLGMLGSTLARHRSKPRVYIGCMKSGPVLAQKGVKYHEPEYWKFGEEGNKYFRHATGQIYAISKDLATYISVNRQLLHKYANEDVSLGSWFIGLDVEHIDDRSLCCGTPLDCEWKGQAGNPCAASFDWSCSGICKSVDRMLEVHQRCGEGDGAIWHSSF
notes: AtGALT31A, Arabidopsis thaliana, locus At1g32930; full-length cDNA without stop codon; Two copies that differ only in the tag were used in the FRET experiments: mCer3-HA (donor) and YFP-HA (acceptor); They are kept as one molecule so that the homodimer row has the protein with itself; also called AtGALT31A-mCer3; AtGALT31A-YFP; source: N. benthamiana leaves, Agrobacterium-infiltrated, transient …

Common to all, as to test: FRET or BRET; acceptor photobleaching FRET, mCer3 donor and YFP acceptor, co-expressed in N. benthamiana leaf epidermal cells; Golgi ROIs, pixel-by-pixel FRET efficiency
(In BRET a luciferase serves as donor, and the signal depends on an acceptor being close.)

In series [1] the target is B2. The following applies: partners not purified.
Series [2] concerns the molecule itself.
In series [3] the target is B1. The following applies: partners not purified.

In the case of B1, the FRET efficiency in series [1] turned out to be 18%; in series [2], 34%.
As to B2, the values for the FRET efficiency in series [3] and in series [2] were 29% and 19%, respectively.

The values are drawn from article PMC4234293, “Galactosyltransferases from Arabidopsis thaliana in the biosynthesis of type II arabinogalactan: molecular interaction enhances enzyme activity” (BMC Plant Biology, 2014).
